Assay [1] concerns the target Vh1 domain of human vinculin (residues 1–258) (human) (UniProt P18206). The assay can be described thus: SPR. A general note: SPR reads the build-up and loss of mass on a sensor chip optically.
For assay [2], the target named is Human full-length vinculin (residues 1–1,066) (human) (UniProt P18206). As to the kind of experiment: SPR.
The target in assay [3] is Vh1 domain of human vinculin (residues 1–258) (human) (UniProt P18206). As to the kind of experiment: native gel or EMSA. Background: In EMSA bound probe runs differently from free probe, usually more slowly.
Assay [4] concerns the target T1, Vh1 domain of human vinculin (residues 1–258) (human, UniProt P18206 1-258).
T1 sequence (looked up): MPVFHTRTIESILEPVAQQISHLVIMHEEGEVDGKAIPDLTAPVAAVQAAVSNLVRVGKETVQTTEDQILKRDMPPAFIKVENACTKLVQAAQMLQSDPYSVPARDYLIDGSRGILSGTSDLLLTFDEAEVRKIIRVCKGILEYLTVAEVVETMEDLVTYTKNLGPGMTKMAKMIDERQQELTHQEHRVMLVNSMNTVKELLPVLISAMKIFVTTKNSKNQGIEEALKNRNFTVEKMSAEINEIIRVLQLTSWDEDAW
The assay can be described thus: SPR.

Assay [5] concerns the target T1, Vh1 domain of human vinculin (residues …). The assay can be described thus: native gel or EMSA.
Assay [6] has the same target. As to the kind of experiment: crystal structure.

A word on the Kd: it is the constant that tells how readily two partners part at equilibrium. Read a high Kd as weaker binding. The term stoichiometry N denotes the number of molecules, sites or subunits per partner or assembly.

In assay [1], IpaA-VBS2-Y567I peptide showed a Kd of 15000 pM. For “IpaA-Cterm (C-terminal domain of IpaA, residues 559–633) (from UniProt P18010 559-633) (domain or fragment)”, the Kd in assay [2] turned out to be 35.2 pM; in assay [1] it was 0.0062 pM. For the same molecule, in assay [3], the stoichiometry N stood at 1.

On to AIYEKAKEVSSALSKVLSKIDDT (peptide, UniProt P18010 565-587, looked up) [IpaA-VBS2 peptide (IpaA residues 565–587)], for which binding in assay [4] was put at a Kd of 6610 pM. For the molecule AIYEAAKEVSSALSKVLSKIDDT [IpaA-VBS2-K569A peptide], in assay [4], binding was characterised by a dissociation constant (Kd) of 530 pM.

B1: Vt domain of human vinculin (residues 879–1,066) (domain or fragment, UniProt P18206-2 879-1066, looked up)
chain: EEKDEEFPEQKAGEVINQPMMMAARQLHDEARKWSSKGNDIIAAAKRMALLMAEMSRLVRGGSGTKRALIQCAKDIAKASDEVTRLAKEVAKQCTDKRIRTNLLQVCERIPTISTQLKILSTVKATMLGRTNISDEESEQATEMLVHNAQNLMQSVKETVREAEAASIKIRTDAGFTLRWVRKTPWYQ
For B1, in assay [5], the binding result is “binds”.

In the case of NNDITAENNNIYKAAKDVTTSLSKVLKNINKD (peptide, UniProt P18010 602-633, looked up) [IpaA residues 602–633 (containing the IpaA-VBS), peptide of the crystal structure], the binding result in assay [6] was “binds”. For the molecule NIYKAAKDVTTSLSKVLKNINKD (peptide, UniProt P18010 611-633, looked up) [IpaA-VBS peptide (IpaA residues 611–633)], the Kd in assay [4] is 110 pM.

Molecule NIIKAAKDVTTSLSKVLKNINKD [IpaA-VBS-Y613I peptide] gave a Kd in assay [4] of 270 pM.

For the origin of these results see paper PMC2064523 (The Journal of Cell Biology, 2006).
